Assay results published in US20240261333A1 (published 2024).

What was measured:
MMS19 = target: T1, MMS19 (human, UniProt Q96T76-9 2-987, limits assumed); experiment: co-IP with anti-FLAG, C-FLAG B3GNT2, mass spectrometry
T1 construct: also called NP_001276332.1 (+9)
T1 sequence (looked up): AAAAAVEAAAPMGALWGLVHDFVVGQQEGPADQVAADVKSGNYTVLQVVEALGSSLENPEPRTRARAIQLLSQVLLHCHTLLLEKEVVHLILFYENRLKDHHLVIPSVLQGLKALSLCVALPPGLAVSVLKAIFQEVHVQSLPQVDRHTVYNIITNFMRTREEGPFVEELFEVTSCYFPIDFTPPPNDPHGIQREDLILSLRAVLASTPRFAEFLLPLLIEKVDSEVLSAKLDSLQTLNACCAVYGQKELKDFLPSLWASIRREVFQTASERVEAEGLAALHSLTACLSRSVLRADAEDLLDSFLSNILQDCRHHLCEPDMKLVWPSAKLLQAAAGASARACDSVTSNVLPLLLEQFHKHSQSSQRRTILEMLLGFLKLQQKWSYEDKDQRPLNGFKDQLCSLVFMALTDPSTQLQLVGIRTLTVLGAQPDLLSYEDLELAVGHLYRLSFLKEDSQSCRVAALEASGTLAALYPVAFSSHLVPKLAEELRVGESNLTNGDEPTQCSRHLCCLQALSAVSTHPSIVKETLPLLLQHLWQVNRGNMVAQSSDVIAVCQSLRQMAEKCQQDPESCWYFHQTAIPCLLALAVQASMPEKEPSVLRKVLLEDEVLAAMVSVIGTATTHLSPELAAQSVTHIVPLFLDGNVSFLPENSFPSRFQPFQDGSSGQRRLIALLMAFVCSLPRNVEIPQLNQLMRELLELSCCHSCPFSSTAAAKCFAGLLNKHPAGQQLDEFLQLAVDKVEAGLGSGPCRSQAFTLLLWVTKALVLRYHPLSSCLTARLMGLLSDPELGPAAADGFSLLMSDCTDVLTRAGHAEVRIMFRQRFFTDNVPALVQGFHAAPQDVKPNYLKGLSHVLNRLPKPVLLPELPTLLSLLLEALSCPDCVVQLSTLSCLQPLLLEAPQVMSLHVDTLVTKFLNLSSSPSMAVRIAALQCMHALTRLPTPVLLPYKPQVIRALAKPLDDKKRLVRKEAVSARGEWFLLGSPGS
Description: (§1) Cells were plated in 10-cm cell culture dishes and grown to 60-80% confluency. For each condition, two biological replicates were harvested for co-IP. Cells were washed with PBS and 4 mL of lysis buffer (20 mM HEPES, 1% Triton X-100, 150 mM NaCl, 1 mM EDTA, and 10% glycerol) containing protease inhibitor cocktail was added. Cells were scraped and lysate was incubated at 4° C. under rotary agitation for 1 h. Lysate was centrifuged at 14,000×g for 10 min at 4° C. Supernatant was transferred to a new tube and an aliquot was taken as the input. […] For Western blots, 10 μg/mL Chicken Anti-FLAG (Aves labs ET-DY100) and IgY control (R&D Systems AB-101-C) antibodies were biotinylated (Thermo Fisher Scientific 90407) and added to the respective conditions. Lysates with antibodies were incubated at 4° C. under rotary agitation overnight. For each mL of lysate, 50 μL of Pierce Protein A/G Magnetic Beads (Mass spectrometry; Thermo Fisher Scientific 88803) or Pierce Streptavidin Magnetic Beads (Western blot; Thermo Fisher Scientific 88817) was washed twice with lysis buffer. Lysates with antibodies were added to the beads and incubated at 4° C. under rotary agitation for 4 h. Beads were washed with lysis buffer 3 times and resuspended in lysis buffer for storage.
(§2) Magnetic beads were resuspended in 100 mM Tris pH 7.8, reduced, alkylated and digested with trypsin at 37° ° C. overnight. This solution was subjected to solid phase extraction to concentrate the peptides and remove unwanted reagents followed by injection onto a Shimadzu HPLC with fraction collector. Eight fractions were collected and after concentration were injected on a Waters NanoAcquity HPLC equipped with a self-packed Aeris 3 μm C18 analytical column 0.075 mm by 20 cm, (Phenomenex). Peptides were eluted using standard reverse-phase gradients. The effluent from the column was analyzed using a Thermo Orbitrap Elite mass spectrometer (nanospray configuration) operated in a data dependent manner for 54 minutes. The resulting fragmentation spectra were correlated against the known database using Proteome Discover 1.4 (Thermo Fisher Scientific).

CPSF7 = target: T2, CPSF7 (human, UniProt Q8N684 1-471); experiment: as above
T2 construct: also called NP_001129512.1 (+5)
T2 sequence (looked up): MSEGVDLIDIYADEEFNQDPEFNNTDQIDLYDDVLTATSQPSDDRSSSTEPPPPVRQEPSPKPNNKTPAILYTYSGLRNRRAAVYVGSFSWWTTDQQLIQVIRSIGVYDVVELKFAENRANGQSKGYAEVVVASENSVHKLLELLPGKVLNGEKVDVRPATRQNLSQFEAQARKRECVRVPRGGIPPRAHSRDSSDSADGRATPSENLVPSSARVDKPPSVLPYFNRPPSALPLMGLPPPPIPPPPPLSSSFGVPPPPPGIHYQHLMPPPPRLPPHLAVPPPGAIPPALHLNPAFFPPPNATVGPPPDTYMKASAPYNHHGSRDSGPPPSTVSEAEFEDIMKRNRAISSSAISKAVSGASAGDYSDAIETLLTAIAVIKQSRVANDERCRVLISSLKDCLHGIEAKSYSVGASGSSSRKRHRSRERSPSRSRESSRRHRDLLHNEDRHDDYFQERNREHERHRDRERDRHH
Description: as §1, §2

B1: C-terminal FLAG tagged B3GNT2 (enzyme, human, UniProt Q9NY97 1-397, looked up)
chain: MSVGRRRIKLLGILMMANVFIYFIMEVSKSSSQEKNGKGEVIIPKEKFWKISTPPEAYWNREQEKLNRQYNPILSMLTNQTGEAGRLSNISHLNYCEPDLRVTSVVTGFNNLPDRFKDFLLYLRCRNYSLLIDQPDKCAKKPFLLLAIKSLTPHFARRQAIRESWGQESNAGNQTVVRVFLLGQTPPEDNHPDLSDMLKFESEKHQDILMWNYRDTFFNLSLKEVLFLRWVSTSCPDTEFVFKGDDDVFVNTHHILNYLNSLSKTKAKDLFIGDVIHNAGPHRDKKLKYYIPEVVYSGLYPPYAGGGGFLYSGHLALRLYHITDQVHLYPIDDVYTGMCLQKLGLVPEKHKGFRTFDIEEKNKNNICSYVDLMLVHSRKPQEMIDIWSQLQSAHLKC
notes: FLAG-tagged ORF overexpressed in A375 cells; pulled down from the lysate with mouse anti-FLAG; also called C-FLAG B3GNT2; C-term flag; not shown: C-terminal FLAG tag
With B1 the “co-IP/MS count, C-term flag” value (MMS19) was 0 and the “co-IP/MS count, C-term flag” value (CPSF7) was 9.
